Source: patent US20240053349A1
One block for each molecule: values may come before it. Square brackets hold non-standard residues; d marks the D form. Ends that are not written are not given here.

Experiments:
[1] = target: mouse plasma proteins (CD-1 mouse); assay: plasma protein binding, dialysis 4 h at 37 C, 2 µM, LC-MS/MS; control
human plasma proteins = assay: as above
[2] = target: T1, Folate-hshta-Lys(IPBA)-M-V-Lys(DOTA) (compound #1306) (not fully specified)
T1 chain: HSHTAKMVK

[3] = target: T2, Folate-hshta-Lys(IPBA)-Gly-Phe-Lys(DOTA) (compound #1307) (not fully specified)
T2 chain: HSHTAKGFK

[4] = target: T3, Fol-hshta-Lys(4-MPBA)-Gly-Phe-Lys(PEG3-DOTA) (compound #3302) (not fully specified)
T3 chain: HSHTAKGFK

[5] = target: T4, Folate-hshta-Lys(MPBA)-Gly-Phe-Lys(DOTA) (compound #6305) (not fully specified)
T4 chain: HSHTAKGFK

[6] = target: T5, Fol-hshta-PEG3-Gly-Phe-Lys(DOTA) (compound #6307)
T5 chain: HSHTAGFK

[7] = target: T6, Fol-hshta-Gly-Phe-Lys(AO) (compound #3303) (not fully specified)
T6 chain: HSHTAGFK

[8] = target: T7, Folate-hshta-G-F-K(DOTA)-OH (Indi 7327, compound #7327) (not fully specified)
T7 chain: HSHTAGFK

[9] = target: T8, Folate-hshta-PEG3-Lys(MPBA)-Lys(DOTA) (compound #2809) (not fully specified)
T8 chain: HSHTAKK

[10] = target: T9, Fol-hshta-PEG3-Lys(DOTA) (compound #1189) (not fully specified)
T9 chain: HSHTAK

[11] = target: T10, Fol-hshta-Lys(4-MPBA)-Gly-Phe-Lys(AO) (compound #3304)
T10 chain: HSHTAKGFK

[12] = target: Human FOLR1 on OVCAR3 cells (human) (UniProt P15328); assay: flow cytometry on OVCAR3 cells after 1 h at 37 C, before acid wash
[13] = target: Human FOLR1 on OVCAR3 cells (human) (UniProt P15328); assay: flow cytometry on OVCAR3 cells after 1 h at 37 C, after acid wash (internalized fraction)

Sequence of Human FOLR1 on OVCAR3 cells (human) (P15328 25-234 limits assumed): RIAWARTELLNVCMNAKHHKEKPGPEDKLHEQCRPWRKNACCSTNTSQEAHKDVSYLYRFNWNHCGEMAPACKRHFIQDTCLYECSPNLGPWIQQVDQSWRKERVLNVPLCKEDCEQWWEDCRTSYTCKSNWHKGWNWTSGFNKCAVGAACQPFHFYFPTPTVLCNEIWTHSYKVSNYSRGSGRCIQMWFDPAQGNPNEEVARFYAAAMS

Plasma % Bound [1]: 62.4% | Plasma % Bound (human plasma proteins): 59.4%
Molecule: Octreotide Acetate (peptide)

B1: human recombinant neprilysin (NEP) (protein)
chain: YDDGICKSSDCIKSAARLIQNMDATTEPCTDFFKYACGGWLKRNVIPETSSRYGNFDILRDELEVVLKDVLQEPKTEDIVAVQKAKALYRSCINESAIDSRGGEPLLKLLPDIYGWPVATENWEQKYGASWTAEKAIAQLNSKYGKKVLINLFVGTDDKNSVNHVIHIDQPRLGLPSRDYYECTGIYKEACTAYVDFMISVARLIRQEERLPIDENQLALEMNKVMELEKEIANATAKPEDRNDPMLLYNKMTLAQIQNNFSLEINGKPFSWLNFTNEIMSTVNISITNEEDVVVYAPEYLTKLKPILTKYSARDLQNLMSWRFIMDLVSSLSRTYKESRNAFRKALYGTTSETATWRRCANYVNGNMENAVGRLYVEAAFAGESKHVVEDLIAQIREVFIQTLDDLTWMDAETKKRAEEKALAIKERIGYPDDIVSNDNKLNNEYLELNYKEDEYFENIIQNLKFSQSKQLKKLREKVDKDEWISGAAVVNAFYSSGRNQIVFPAGILQPPFFSAQQSNSLNYGGIGMVIGHEITHGFDDNGRNFNKDGDLVDWWTQQSASNFKEQSQCMVYQYGNFSWDLAGGQHLNGINTLGENIADNGGLGQAYRAYQNYIKKNGEEKLLPGLDLNHKQLFFLNFAQVWCGTYRPEYAVNSIKTDVHSPGNFRIIGTLQNSAEFSEAFHCRKNSYMNPEKKCRVW
NEP cleavage (in vitro Assay Data) [2]: Cleavage of -M-V-K- linker was confirmed in NEP assay. | NEP-mediated cleavage, MALDI-TOF MS [2]: At 1 nM NEP, substantial (and in the case of GFK complete) cleavage of the test article was observed by MALDI-TOF MS. | NEP cleavage (in vitro Assay Data) [3]: Cleavage of -G-F-K- linker was confirmed in NEP assay. | NEP-mediated cleavage, MALDI-TOF MS [3]: At 1 nM NEP, substantial (and in the case of GFK complete) cleavage of the test article was observed by MALDI-TOF MS. | NEP cleavage (in vitro Assay Data) [4]: Cleavage of -G-F-K- linker was confirmed in NEP assay. | NEP cleavage (in vitro Assay Data) [5]: Cleavage of -G-F-K- linker was confirmed in NEP assay. | NEP-mediated cleavage, NEP titration, MALDI (10 uM PCC) [5]: At 10 nM NEP, complete consumption of the starting peptide was observed. At 1 nM and 0.1 nM NEP, partial cleavage was observed. Below 0.1 nM no cleavage was observed. | NEP cleavage (in vitro Assay Data) [6]: Cleavage of -G-F-K- linker was confirmed in NEP assay. | NEP cleavage (in vitro Assay Data) [7]: Cleavage of -G-F-K- linker was confirmed in NEP assay. | NEP cleavage (in vitro Assay Data) [8]: Cleavage of -G-F-K- linker was confirmed in NEP assay. | NEP-mediated cleavage, NEP titration (10.0 to 0 nM), 37 C 1 h, MALDI-MS [8]: At 10 nM NEP, no intact Indi 7327 remains indicating complete consumption of the peptide. At 1.0 and 0.1 nM NEP, partial cleavage was observed. Below 0.1 nM NEP, no cleavage was observed. | NEP cleavage (in vitro Assay Data) [9]: Confirmed to be resistant to NEP cleavage. | NEP cleavage (in vitro Assay Data) [10]: Confirmed to be resistant to NEP cleavage. | NEP cleavage (in vitro Assay Data) [11]: Cleavage of -G-F-K- linker was confirmed in NEP assay.

percentage of positively stained cells [12]: 73.4% | percentage of positively stained cells [13]: 54.2%
B2: DyLight650-labeled folate-hshta Nterm heterobiligand (peptide)
peptide: folate-[dH][dS][dH][dT][dA]
modifications: also: triazole macrocycle via Pra and Az4, places not given here, DyLight 650 label, site not given here
